According to US20220372167:

T1: murine IGFBP-2 with C-terminal 6His tag, P47877
T1 chain: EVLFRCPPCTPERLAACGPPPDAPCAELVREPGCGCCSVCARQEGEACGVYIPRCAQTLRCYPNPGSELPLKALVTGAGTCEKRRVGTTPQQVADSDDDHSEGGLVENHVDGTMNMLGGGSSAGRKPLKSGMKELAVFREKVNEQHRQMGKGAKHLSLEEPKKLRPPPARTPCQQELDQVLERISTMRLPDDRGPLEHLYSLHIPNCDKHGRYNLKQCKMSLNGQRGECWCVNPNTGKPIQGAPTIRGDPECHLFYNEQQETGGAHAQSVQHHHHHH

T2: murine IGFBP-4 with C-terminal 6His tag, P47879
T2 chain: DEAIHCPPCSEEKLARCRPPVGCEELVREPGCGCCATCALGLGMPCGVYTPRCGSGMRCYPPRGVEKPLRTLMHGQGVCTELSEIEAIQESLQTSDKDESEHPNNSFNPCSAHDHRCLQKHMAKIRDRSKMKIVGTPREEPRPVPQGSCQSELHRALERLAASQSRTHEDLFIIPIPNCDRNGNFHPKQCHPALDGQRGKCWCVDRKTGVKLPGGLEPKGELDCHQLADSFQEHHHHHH

T3: murine IGFBP-5 with C-terminal 6His tag, Q07079
T3 chain: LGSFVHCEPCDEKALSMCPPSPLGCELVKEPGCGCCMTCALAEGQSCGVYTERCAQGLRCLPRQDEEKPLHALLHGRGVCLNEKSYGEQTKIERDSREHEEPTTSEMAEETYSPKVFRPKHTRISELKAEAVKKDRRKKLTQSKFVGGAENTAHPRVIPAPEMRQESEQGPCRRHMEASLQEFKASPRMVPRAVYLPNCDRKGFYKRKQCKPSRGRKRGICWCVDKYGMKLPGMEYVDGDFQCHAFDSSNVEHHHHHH

T4: human IGFBP-2 with N-terminal 6His tag, P18065
T4 chain: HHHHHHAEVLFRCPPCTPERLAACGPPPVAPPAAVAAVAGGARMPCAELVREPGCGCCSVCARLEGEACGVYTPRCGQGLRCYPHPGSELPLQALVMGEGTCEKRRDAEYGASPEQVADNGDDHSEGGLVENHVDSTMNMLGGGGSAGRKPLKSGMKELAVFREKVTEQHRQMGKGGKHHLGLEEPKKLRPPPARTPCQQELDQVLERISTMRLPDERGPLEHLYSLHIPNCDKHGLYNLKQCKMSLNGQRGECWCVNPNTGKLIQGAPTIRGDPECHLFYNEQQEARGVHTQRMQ

T5: human IGFBP-4 with N-terminal 6His tag, P22692
T5 chain: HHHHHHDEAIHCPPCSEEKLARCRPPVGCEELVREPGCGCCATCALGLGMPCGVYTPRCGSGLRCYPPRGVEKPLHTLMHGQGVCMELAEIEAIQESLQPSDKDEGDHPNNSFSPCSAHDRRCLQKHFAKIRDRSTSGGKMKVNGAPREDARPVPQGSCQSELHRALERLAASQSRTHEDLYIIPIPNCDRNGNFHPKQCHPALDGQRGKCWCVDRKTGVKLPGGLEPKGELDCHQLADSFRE

B1: murine PAPP-A protein with C-terminal C-myc and Flag tags (protein)
chain: RGAEEPSPPSRALYFSGRGEQLRLRADLELPRDAFTLQVWLRAEGGQKSPAVITGLYDKCSYTSRDRGWVMGIHTTSDQGNRDPRYFFSLKTDRARKVTTIDAHRSYLPGQWVHLAATYDGRLMKLYMNGAQVATSAEQVGGIFSPLTQKCKVLMLGGSALNHNFRGHIEHFSLWKVARTQREIVSDMETRGLHTPLPQLLLQENWDNVKRTWSPMKDGNSPQVEFSNAHGFLLDTNLEPPLCGQTLCDNTEVISSYNQLPSFRQPKVVRYRVVNIYDDHHENPTVSWQQIDFQHQQLAEAFQHYNISWELEVLNINSSSLRHRLILANCDISKIGDEKCDPECNHTLTGHDGGDCRQLRYPAFMKKQQNGVCDMDCNYERFNFDGGECCDPDITDVTKTCFDPDSPHRAYLDVNELKNILRLDGSTHLNIFFANSSEEELAGVATWPWDKEALMHLGGIVLNPSFYGIPGHTHTMIHEIGHSLGLYHIFRGISEIQSCSDPCMETEPSFETGDLCNDTNPAPKHKFCGDPGPGNDTCGFHGFFNTPYNNFMSYADDDCTDSFTPNQVSRMHCYLDLVYQSWQPSRKPAPVALAPQVVGHTMDSVMLEWFPPIDGHFFERELGSACDLCLEGRILVQYAFNASSPMPCGPSGHWSPREAEGHPDVEQPCKSSVRTWSPNSAVNPHTVPPACPEPQGCYLELEFRYPLVPESLTIWVTFVSSDWDSSGAVNDIKLLTISGKNISLGPQNVFCDIPLTIRLRDVGEEVYGIQIYTLDEHLEIDAAMLTSTVDSPLCLQCKPLQYKVLRDPPLLEDVASLLHLNRRFMDTDLKLGSVYQYRIITISGNEESEPSPAAIYTHGSGYCGDGVIQKDQGEECDDMNKVNGDGCSLFCKQEVSFNCIDEPSRCYFHDGDGMCEEFEQKTSIKDCGVYTPQGFLDQWASNASVSHQDQQCPGWVVIGQPAASQVCRTKVIDLSEGISQHAWYPCTITYPYYHLPQTTFWLQTYFSQPMVAAAVIIHLVTDGTYYGDQKQETISVQLLDTKDQSHDLGLHVLSCRNNPLIIPVVHDLSQPFYHSQAVHVSFSSPLVAISGVALRSFDNFDPVTLSSCQRGETYSPAEQSCVHFACQAADCPELAVGNASLNCSSNHHYHGAQCTVSCQTGYVLQIQRDDELIKSQVGPSITVTCTEGKWNKQVACEPVDCGIPDHHHVYAASFSCPEGTTFGRRCSFQCRHPAQLKGNNSFLTCMEDGLWSFPEALCELMCLAPPPVPNADLQTARCRENKHKVGSFCKYKCKPGYHVPGSSRKSKKRAFKTQCTQDGSWQEGTCVPVTCDPPPPKFHGLYQCTNGFQFNSECRIKCEDSDASQGRGSNIIHCRKDGTWSGSFHVCREMQGQCSAPNQLNSNLKLQCPDGYAIGSECAISCLDHNSESIILPVNLTVRDIPHWMNPTRVQRIVCTAGLQWYPHPALIHCVKGCEPFMGDNYCDAINNRAFCNYDGGDCCTSTVKTKKVTPFPMSCDLQNDCACRDPEAQEHNRKDLRGYSHG
B2: human PAPP-A protein with C-terminal C-myc and Flag tags (protein)
chain: EARGATEEPSPPSRALYFSGRGEQLRVLRADLELPRDAFTLQVWLRAEGGQRSPAVITGLYDKCSYISRDRGWVVGIHTISDQDNKDPRYFFSLKTDRARQVTTINAHRSYLPGQWVYLAATYDGQFMKLYVNGAQVATSGEQVGGIFSPLTQKCKVLMLGGSALNHNYRGYIEHFSLWKVARTQREILSDMETHGAHTALPQLLLQENWDNVKHAWSPMKDGSSPKVEFSNAHGFLLDTSLEPPLCGQTLCDNTEVIASYNQLSSFRQPKVVRYRVVNLYEDDHKNPTVTREQVDFQHHQLAEAFKQYNISWELDVLEVSNSSLRRRLILANCDISKIGDENCDPECNHTLTGHDGGDCRHLRHPAFVKKQHNGVCDMDCNYERFNFDGGECCDPEITNVTQTCFDPDSPHRAYLDVNELKNILKLDGSTHLNIFFAKSSEEELAGVATWPWDKEALMHLGGIVLNPSFYGMPGHTHTMIHEIGHSLGLYHVFRGISEIQSCSDPCMETEPSFETGDLCNDTNPAPKHKSCGDPGPGNDTCGFHSFFNTPYNNFMSYADDDCTDSFTPNQVARMHCYLDLVYQGWQPSRKPAPVALAPQVLGHTTDSVTLEWFPPIDGHFFERELGSACHLCLEGRILVQYASNASSPMPCSPSGHWSPREAEGHPDVEQPCKSSVRTWSPNSAVNPHTVPPACPEPQGCYLELEFLYPLVPESLTIWVTFVSTDWDSSGAVNDIKLLAVSGKNISLGPQNVFCDVPLTIRLWDVGEEVYGIQIYTLDEHLEIDAAMLTSTADTPLCLQCKPLKYKVVRDPPLQMDVASILHLNRKFVDMDLNLGSVYQYWVITISGTEESEPSPAVTYIHGRGYCGDGIIQKDQGEQCDDMNKINGDGCSLFCRQEVSFNCIDEPSRCYFHDGDGVCEEFEQKTSIKDCGVYTPQGFLDQWASNASVSHQDQQCPGWVIIGQPAASQVCRTKVIDLSEGISQHAWYPCTISYPYSQLAQTTFWLRAYFSQPMVAAAVIVHLVTDGTYYGDQKQETISVQLLDTKDQSHDLGLHVLSCRNNPLIIPVVHDLSQPFYHSQAVRVSFSSPLVAISGVALRSFDNFDPVTLSSCQRGETYSPAEQSCVHFACEKTDCPELAVENASLNCSSSDRYHGAQCTVSCRTGYVLQIRRDDELIKSQTGPSVTVTCTEGKWNKQVACEPVDCSIPDHHQVYAASFSCPEGTTFGSQCSFQCRHPAQLKGNNSLLTCMEDGLWSFPEALCELMCLAPPPVPNADLQTARCRENKHKVGSFCKYKCKPGYHVPGSSRKSKKRAFKTQCTQDGSWQEGACVPVTCDPPPPKFHGLYQCTNGFQFNSECRIKCEDSDASQGLGSNVIHCRKDGTWNGSFHVCQEMQGQCSVPNELNSNLKLQCPDGYAIGSECATSCLDHNSESIILPMNVTVRDIPHWLNPTRVERVVCTAGLKWYPHPALIHCVKGCEPFMGDNYCDAINNRAFCNYDGGDCCTSTVKTKKVTPFPMSCDLQGDCACRDPQAQEHSRKDLRGYSHG

How the values were obtained:
[1] = target: T1, murine IGFBP-2 with C-terminal 6His …
[2] = target: T2, murine IGFBP-4 with C-terminal 6His …
[3] = target: T3, murine IGFBP-5 with C-terminal 6His …
[4] = target: five representative anti-PAPP-A antibodies generated from yeast display libraries
[5] = target: T4, human IGFBP-2 with N-terminal 6His tag, …
[6] = target: T5, human IGFBP-4 with N-terminal 6His tag, …
[7] = target: human IGFBP-5 with N-terminal 6His tag, P24593
human IGFBP-5 with N-terminal 6His tag, P24593, sequence (P24593 other isoform, or with tags, fused parts or gaps): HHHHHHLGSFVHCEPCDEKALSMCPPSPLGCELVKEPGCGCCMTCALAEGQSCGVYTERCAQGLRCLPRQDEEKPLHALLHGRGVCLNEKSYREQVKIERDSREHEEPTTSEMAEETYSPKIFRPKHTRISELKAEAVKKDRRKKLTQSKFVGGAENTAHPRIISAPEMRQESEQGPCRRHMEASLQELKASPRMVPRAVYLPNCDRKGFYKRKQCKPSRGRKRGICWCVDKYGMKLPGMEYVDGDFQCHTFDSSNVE

Protein	enzymatic cleavage of IGFBP by PAPP-A [1]	enzymatic cleavage of IGFBP by PAPP-A [2]	enzymatic cleavage of IGFBP by PAPP-A [3]	PAPP-A cleavage of human IGFBP4 at one antibody concentration (50 nM) [4]	enzymatic cleavage of IGFBP by PAPP-A [5]	enzymatic cleavage of IGFBP by PAPP-A [6]	enzymatic cleavage of IGFBP by PAPP-A [7]
B1	cleavage of both human and murine IGFBP-4 and IGFBP-2 by PAPP-A	cleavage of both human and murine IGFBP-4 and IGFBP-2 by PAPP-A	PAPP-A's ability to cleave IGFBP-5				
B2				the five representative antibodies effectively blocking cleavage of human IGFBP4	cleavage of both human and murine IGFBP-4 and IGFBP-2 by PAPP-A	cleavage of both human and murine IGFBP-4 and IGFBP-2 by PAPP-A	PAPP-A's ability to cleave IGFBP-5
